Laboratory results taken from the supplement of paper PMC10065799, “High-throughput profiling of sequence recognition by tyrosine kinases and SH2 domains using bacterial peptide display” (eLife, 2023).

Key:
FGFR3 = FGFR3 (UniProt P22607); assay: phosphorylation enrichment, bacterial display (enrichment ratio); higher = better substrate or ligand; peptides without Tyr show the background
AncSZ = assay: as above
EPHB2 = EPHB2 (UniProt P29323); assay: as above
FGFR1 = FGFR1 (UniProt P11362); assay: as above
Sequence of FGFR1 (P11362 whole entry, looked up): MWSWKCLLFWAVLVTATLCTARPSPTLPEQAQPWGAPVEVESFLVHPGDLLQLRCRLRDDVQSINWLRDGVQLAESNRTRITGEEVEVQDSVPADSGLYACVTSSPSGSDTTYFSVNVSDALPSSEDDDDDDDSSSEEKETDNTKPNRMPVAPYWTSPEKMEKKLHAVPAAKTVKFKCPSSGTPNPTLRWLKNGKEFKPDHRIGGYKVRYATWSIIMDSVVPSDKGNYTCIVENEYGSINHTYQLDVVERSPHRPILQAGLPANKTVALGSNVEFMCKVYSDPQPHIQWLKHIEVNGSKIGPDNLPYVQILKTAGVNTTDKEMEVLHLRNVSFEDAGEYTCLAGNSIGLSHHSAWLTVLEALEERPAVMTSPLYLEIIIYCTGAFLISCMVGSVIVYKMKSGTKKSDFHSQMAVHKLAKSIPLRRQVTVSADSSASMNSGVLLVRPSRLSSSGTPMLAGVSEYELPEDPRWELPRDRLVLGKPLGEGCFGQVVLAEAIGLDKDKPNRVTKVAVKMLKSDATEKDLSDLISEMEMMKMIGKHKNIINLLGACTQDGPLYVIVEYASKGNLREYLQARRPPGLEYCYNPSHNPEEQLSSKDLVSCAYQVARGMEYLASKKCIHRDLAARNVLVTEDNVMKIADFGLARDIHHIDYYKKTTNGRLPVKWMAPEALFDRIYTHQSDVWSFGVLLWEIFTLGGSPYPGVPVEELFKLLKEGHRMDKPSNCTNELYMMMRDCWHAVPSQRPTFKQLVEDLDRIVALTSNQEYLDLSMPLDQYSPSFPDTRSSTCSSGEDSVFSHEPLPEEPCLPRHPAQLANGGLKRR

MERTK = MERTK (UniProt Q12866); assay: as above
Sequence of MERTK (Q12866 whole entry, looked up): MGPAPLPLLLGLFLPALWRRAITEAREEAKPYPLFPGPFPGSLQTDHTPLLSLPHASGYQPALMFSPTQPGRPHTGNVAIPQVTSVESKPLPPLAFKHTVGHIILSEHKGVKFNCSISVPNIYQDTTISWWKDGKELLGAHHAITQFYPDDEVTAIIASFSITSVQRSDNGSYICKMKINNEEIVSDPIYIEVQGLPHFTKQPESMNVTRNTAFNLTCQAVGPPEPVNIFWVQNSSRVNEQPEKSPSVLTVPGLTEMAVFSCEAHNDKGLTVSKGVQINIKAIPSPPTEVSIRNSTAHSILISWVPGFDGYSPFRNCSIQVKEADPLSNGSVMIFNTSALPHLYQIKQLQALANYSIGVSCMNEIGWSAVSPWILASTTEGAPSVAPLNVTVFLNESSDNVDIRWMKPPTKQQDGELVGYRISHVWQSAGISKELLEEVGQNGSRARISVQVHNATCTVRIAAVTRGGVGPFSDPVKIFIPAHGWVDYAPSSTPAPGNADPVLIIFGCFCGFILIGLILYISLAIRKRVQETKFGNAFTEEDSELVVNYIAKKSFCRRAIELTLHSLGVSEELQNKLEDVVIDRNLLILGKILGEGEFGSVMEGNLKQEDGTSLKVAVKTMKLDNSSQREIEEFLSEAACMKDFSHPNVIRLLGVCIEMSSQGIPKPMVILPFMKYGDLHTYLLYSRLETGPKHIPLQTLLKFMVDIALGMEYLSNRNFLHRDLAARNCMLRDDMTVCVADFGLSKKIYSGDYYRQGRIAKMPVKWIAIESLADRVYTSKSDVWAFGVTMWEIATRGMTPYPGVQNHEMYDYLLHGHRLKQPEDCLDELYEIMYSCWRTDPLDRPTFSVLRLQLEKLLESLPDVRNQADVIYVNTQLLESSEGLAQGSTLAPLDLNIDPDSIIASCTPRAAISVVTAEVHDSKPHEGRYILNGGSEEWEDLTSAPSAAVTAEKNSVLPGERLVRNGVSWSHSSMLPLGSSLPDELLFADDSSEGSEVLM

Fes = Fes (UniProt P07332); assay: as above
EPHB1 = EPHB1 (UniProt P54762); assay: as above
c-Src = assay: as above
Hck = Hck (UniProt P08631); assay: as above
Sequence of Hck (P08631 whole entry, looked up): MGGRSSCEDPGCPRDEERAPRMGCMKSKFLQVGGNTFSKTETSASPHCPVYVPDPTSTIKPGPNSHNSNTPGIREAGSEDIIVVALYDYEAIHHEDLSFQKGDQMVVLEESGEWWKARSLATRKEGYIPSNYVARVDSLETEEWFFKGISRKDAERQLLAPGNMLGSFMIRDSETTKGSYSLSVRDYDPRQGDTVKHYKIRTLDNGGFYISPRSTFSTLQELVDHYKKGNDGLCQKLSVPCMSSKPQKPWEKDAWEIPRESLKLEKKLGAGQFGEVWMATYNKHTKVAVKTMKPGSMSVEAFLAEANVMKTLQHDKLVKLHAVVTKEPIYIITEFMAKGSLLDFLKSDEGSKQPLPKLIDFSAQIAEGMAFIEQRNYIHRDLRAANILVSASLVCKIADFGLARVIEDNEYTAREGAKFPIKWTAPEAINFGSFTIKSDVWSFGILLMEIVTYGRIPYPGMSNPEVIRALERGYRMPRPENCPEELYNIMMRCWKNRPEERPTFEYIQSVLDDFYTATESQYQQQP

c-Abl (mouse) = assay: as above
Fer (mouse) = assay: as above
Fyn = Fyn (UniProt P06241); assay: as above
Sequence of Fyn (P06241 whole entry, looked up): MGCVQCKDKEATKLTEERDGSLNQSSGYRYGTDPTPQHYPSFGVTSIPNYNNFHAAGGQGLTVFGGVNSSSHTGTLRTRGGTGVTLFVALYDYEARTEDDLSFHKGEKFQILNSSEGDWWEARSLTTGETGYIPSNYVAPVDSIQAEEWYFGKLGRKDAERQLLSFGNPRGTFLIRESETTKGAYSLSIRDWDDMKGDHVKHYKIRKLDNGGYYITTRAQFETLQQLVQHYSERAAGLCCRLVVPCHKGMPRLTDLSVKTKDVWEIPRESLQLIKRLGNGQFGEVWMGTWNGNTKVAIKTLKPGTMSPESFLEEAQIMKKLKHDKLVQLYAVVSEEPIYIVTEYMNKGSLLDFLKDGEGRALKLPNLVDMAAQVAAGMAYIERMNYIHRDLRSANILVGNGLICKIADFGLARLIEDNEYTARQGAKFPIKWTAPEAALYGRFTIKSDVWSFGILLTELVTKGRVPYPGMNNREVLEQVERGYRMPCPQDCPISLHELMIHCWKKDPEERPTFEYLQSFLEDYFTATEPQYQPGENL

Jak2 = Jak2 (UniProt O60674); assay: as above
c-Src SH2 = assay: SH2 binding enrichment of the phosphorylated peptide, bacterial display (enrichment ratio); higher = better substrate or ligand; peptides without Tyr show the background
SHP2-C SH2 = assay: as above
Grb2 SH2 = Grb2 SH2 (UniProt P62993); assay: as above
Sequence of Grb2 SH2 (P62993 whole entry, looked up, the tested form may be a part): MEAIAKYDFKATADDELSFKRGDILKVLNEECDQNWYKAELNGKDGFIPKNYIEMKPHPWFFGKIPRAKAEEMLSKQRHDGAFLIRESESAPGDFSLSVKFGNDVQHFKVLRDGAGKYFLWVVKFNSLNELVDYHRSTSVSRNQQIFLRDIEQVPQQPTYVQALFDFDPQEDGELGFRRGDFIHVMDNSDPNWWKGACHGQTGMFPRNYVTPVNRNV
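For SH2 binding enrichment of the phosphorylated peptide, bacterial display in this document: peptide library displayed on the E. coli surface as eCPX fusions, selected cells deep-sequenced, score is each peptide's frequency after selection divided by its frequency in the input.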
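For phosphorylation enrichment, bacterial display in this document: 11-residue human phosphosite peptides and single-mutation variants displayed on the E. coli surface, counted by deep sequencing, each peptide's frequency after selection divided by its frequency in the unselected input library; frequency after pTyr selection over input frequency; kinase dosed for 20-30% of maximal phosphorylation in three min.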

Sequence of FGFR3 (P22607 whole entry, looked up): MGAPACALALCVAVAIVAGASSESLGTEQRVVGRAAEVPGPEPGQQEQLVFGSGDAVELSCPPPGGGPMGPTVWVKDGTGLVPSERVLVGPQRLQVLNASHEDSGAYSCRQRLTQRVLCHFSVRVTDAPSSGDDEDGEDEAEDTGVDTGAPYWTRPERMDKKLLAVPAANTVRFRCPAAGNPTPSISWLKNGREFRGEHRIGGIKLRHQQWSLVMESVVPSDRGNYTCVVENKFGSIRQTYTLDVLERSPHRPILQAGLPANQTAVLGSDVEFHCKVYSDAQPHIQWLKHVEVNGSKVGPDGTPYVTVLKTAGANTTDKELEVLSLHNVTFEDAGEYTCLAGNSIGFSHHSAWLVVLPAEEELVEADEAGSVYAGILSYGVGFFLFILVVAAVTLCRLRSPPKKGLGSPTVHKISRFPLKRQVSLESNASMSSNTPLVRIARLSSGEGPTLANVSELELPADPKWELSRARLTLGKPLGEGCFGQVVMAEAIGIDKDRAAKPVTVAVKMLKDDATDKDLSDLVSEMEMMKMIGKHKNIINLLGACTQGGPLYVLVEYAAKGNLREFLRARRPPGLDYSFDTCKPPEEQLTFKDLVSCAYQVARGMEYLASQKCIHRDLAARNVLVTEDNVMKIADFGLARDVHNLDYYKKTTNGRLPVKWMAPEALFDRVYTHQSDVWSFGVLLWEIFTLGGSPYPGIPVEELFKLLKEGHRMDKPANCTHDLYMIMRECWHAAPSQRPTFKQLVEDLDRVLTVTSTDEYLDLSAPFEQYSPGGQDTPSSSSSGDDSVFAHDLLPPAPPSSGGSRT
Sequence of EPHB2 (P29323 whole entry, looked up): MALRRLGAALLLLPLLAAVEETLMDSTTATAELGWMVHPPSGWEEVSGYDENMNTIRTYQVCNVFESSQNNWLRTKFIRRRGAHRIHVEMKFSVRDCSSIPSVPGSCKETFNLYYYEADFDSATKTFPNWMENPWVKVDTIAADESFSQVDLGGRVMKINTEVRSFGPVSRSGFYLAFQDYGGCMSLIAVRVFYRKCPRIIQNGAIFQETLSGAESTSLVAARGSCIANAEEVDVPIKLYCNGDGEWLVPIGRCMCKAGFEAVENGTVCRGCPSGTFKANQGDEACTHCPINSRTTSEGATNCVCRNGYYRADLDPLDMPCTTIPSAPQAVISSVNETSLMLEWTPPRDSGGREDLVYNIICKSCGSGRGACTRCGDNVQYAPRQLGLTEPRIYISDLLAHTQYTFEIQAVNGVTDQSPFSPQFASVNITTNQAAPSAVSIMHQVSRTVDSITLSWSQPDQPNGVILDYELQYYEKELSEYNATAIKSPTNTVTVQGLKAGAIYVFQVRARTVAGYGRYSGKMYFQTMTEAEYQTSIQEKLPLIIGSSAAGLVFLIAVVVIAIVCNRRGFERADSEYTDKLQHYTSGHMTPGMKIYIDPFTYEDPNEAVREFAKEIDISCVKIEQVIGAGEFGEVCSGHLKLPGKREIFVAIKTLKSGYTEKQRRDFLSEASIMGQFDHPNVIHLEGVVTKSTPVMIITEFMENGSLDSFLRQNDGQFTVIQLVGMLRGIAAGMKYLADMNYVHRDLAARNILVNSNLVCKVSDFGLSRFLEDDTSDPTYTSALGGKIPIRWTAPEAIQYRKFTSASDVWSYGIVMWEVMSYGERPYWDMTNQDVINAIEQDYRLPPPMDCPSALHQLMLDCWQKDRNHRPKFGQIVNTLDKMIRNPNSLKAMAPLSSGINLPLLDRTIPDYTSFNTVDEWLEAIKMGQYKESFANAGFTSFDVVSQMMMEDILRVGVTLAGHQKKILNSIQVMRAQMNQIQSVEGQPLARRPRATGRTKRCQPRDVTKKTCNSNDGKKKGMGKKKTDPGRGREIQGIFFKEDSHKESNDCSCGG

| Sequence | phosphorylation enrichment (FGFR3) | phosphorylation enrichment (AncSZ) | phosphorylation enrichment (EPHB2) | phosphorylation enrichment (FGFR1) | phosphorylation enrichment (MERTK) | phosphorylation enrichment (Fes) | phosphorylation enrichment (EPHB1) | phosphorylation enrichment (c-Src) | phosphorylation enrichment (Hck) | phosphorylation enrichment (c-Abl (mouse)) | phosphorylation enrichment (Fer (mouse)) | phosphorylation enrichment (Fyn) | phosphorylation enrichment (Jak2) | SH2 binding enrichment (c-Src SH2) | SH2 binding enrichment (SHP2-C SH2) | SH2 binding enrichment (Grb2 SH2) |
| --- | --- | --- | --- | --- | --- | --- | --- | --- | --- | --- | --- | --- | --- | --- | --- | --- |
| FTNRSYDLDFD [MYC_Y12_N11S_YF] | 0.708 | 0.978 | 0.58 | 0.685 | 0.422 | 1.13 | 0.505 | 0.499 | 0.64 | 0.77 | 0.476 | 0.55 | 0.922 | 2.61 | 0.723 | 0.756 |
| FTRNYYVQAVL [CYBA_Y88_R90Q] | 2.67 | 1.01 | 0.558 | 1.59 | 0.887 | 0.981 | 0.66 | 0.538 | 0.521 | 0.813 | 0.512 | 0.486 | 1.06 | 0.591 | 0.834 | 0.839 |
| GANFEYIIAEK [ECHS1_Y35] | 0.594 | 0.911 | 0.455 | 0.523 | 0.513 | 0.862 | 0.501 | 0.48 | 0.553 | 0.544 | 0.406 | 0.479 | 0.883 | 0.447 | 0.547 | 0.576 |
| GDAMLYFPSVS [GPR143_Y177_A173D_YF] | 0.98 | 0.721 | 0.446 | 0.801 | 0.726 | 0.823 | 0.511 | 0.746 | 0.692 | 0.674 | 0.521 | 0.55 | 1.92 | 0.528 | 0.632 | 0.744 |
| GDFFRSLAEVA [YWHAG_Y133_Y133S_YF] | 0.595 | 0.871 | 0.503 | 0.486 | 0.357 | 0.865 | 0.423 | 0.425 | 0.405 | 0.721 | 0.438 | 0.464 | 0.72 | 0.4 | 0.696 | 0.913 |
| GDLTDYLMKIL [ACTA1_Y190_R185G] | 0.509 | 0.788 | 0.476 | 0.437 | 0.355 | 0.821 | 0.508 | 0.323 | 0.453 | 0.56 | 0.42 | 0.397 | 0.648 | 0.711 | 1.19 | 1.44 |
| GEAEQYVGGGG [FAT4_Y4980] | 0.687 | 0.842 | 0.414 | 0.543 | 0.371 | 0.87 | 0.394 | 0.327 | 0.44 | 0.584 | 0.448 | 0.465 | 0.746 | 0.464 | 0.584 | 1.16 |
| GEDLSYGDLPP [IRS1_Y151_V154L] | 0.786 | 1.3 | 0.664 | 0.597 | 0.543 | 1.34 | 0.661 | 0.582 | 0.564 | 0.899 | 0.794 | 0.571 | 1.22 | 0.622 | 0.788 | 0.868 |
| GEHSIYCTVNN [CD55_Y266] | 1.07 | 1.55 | 5.39 | 0.955 | 2.08 | 1.73 | 6.56 | 4.66 | 5.61 | 1.98 | 5.03 | 5.28 | 1.22 | 0.48 | 0.639 | 0.598 |
| GETEQYVGGGG [FAT4_Y4980_A4977T] | 0.599 | 0.889 | 0.475 | 0.437 | 0.414 | 0.922 | 0.526 | 0.419 | 0.467 | 0.624 | 0.436 | 0.475 | 0.66 | 0.506 | 0.553 | 0.798 |
| GFAGKYIAMVM [CYP19A1_Y441_C437Y_YF] | 0.49 | 0.694 | 0.823 | 0.454 | 0.525 | 0.858 | 0.41 | 0.599 | 0.556 | 0.473 | 0.539 | 0.453 | 0.594 | 0.755 | 0.81 | 0.821 |
| GFKVRYATGSI [FGFR1_Y210_W213G_YF] | 0.471 | 0.628 | 0.404 | 0.516 | 0.455 | 0.689 | 0.473 | 0.343 | 0.44 | 0.541 | 0.362 | 0.417 | 0.651 | 0.706 | 1 | 1.28 |
| GGEEFYVHFVG [KAT8_Y90_R86G_YF] | 0.96 | 1.34 | 0.605 | 0.648 | 0.433 | 1.39 | 0.747 | 0.501 | 0.612 | 0.967 | 0.592 | 0.58 | 1.24 | 0.308 | 0.538 | 0.626 |
| GGFSRYDEGSG [RECQL5_Y484_D480G] | 0.659 | 0.733 | 0.558 | 0.473 | 0.435 | 0.928 | 0.431 | 0.416 | 0.468 | 0.636 | 0.483 | 0.432 | 0.729 | 0.459 | 0.62 | 0.858 |
| GGGCGYNRSSG [FUS_Y232_G230C] | 0.465 | 0.663 | 0.426 | 0.448 | 0.412 | 0.717 | 0.392 | 0.435 | 0.42 | 0.815 | 0.434 | 0.422 | 0.701 | 0.531 | 0.632 | 0.802 |
| GGGGSYNNFGN [HNRNPA1_Y312_D314N] | 0.403 | 0.545 | 0.416 | 0.362 | 0.308 | 0.564 | 0.379 | 0.325 | 0.435 | 0.335 | 0.378 | 0.388 | 0.463 | 0.43 | 0.587 | 0.805 |
| GGMTEYNLVVV [KRAS_Y4_K5N] | 1.05 | 1.21 | 0.552 | 1.08 | 0.398 | 1.1 | 0.642 | 0.478 | 0.609 | 0.758 | 1.17 | 0.486 | 0.981 | 0.352 | 0.488 | 0.669 |
